Test results taken from US12338291B2, “Humanized antibody molecules to CD138 and uses thereof” (VISTERRA, INC., priority 2019, dated 2025).
Numbering of substitutions follows the chain as printed.

B1: mAb 3821: humanized anti-CD138 antibody; VH SEQ ID NO: 466, VL SEQ ID NO: 476 (antibody, V domains shown)
VH: QVQLVQSGAEVKKPGSSVKVSCKASGYSFSSYYMHWVRQAPGQGLEWMGTIHPSDSTANYNQKFKGRVTITVDKSTSTAYMELSSLRSEDTAVYYCANFVYWGQGTTVTVSS
VL: DIVMTQTPLSLSVTPGQPASISCKSSKSLLYKDGKTYLNWFLQKPGQSPQLLIYVVSTRASGVPDRFSGSGSGTDFTLKISRVEAEDVGVYYCQQLVQYPYTFGQGTKLEIK
B2: mAb 4326: humanized anti-CD138 antibody; VH SEQ ID NO: 471, VL SEQ ID NO: 481 (antibody, V domains shown)
VH: B1 VH with S16A, A58T, K65Q, I70M, K74T, S77R
VL: DIVMTQSPDSLAVSLGERATINCKSSQSLLYKDGKTYLNWFQQKPGQPPKLLIYVVSTRASGVPDRFSGSGSGTDFTLTISSLQAEDVAVYYCQQLVEYPYTFGQGTKLEIK
B3: mAb 4521: humanized anti-CD138 antibody; VH SEQ ID NO: 473, VL SEQ ID NO: 476 (antibody, V domains shown)
VH: B1 VH with S16A, S28N, S30A, A58T, I70M, K74T
VL: B1 VL
B4: mAb 4321: humanized anti-CD138 antibody; VH SEQ ID NO: 471, VL SEQ ID NO: 476 (antibody, V domains shown)
VH: B1 VH with S16A, A58T, K65Q, I70M, K74T, S77R
VL: B1 VL
B5: mAb 3820: humanized anti-CD138 antibody; VH SEQ ID NO: 466, VL SEQ ID NO: 475 (antibody, V domains shown)
VH: B1 VH
VL: B1 VL with Q98E
B6: mAb 2810: parental mouse-human chimeric anti-CD138 antibody; VH SEQ ID NO: 296, VL SEQ ID NO: 292 (antibody, V domains shown)
VH: QVQLHQPGTSLVKPGASVKLSCKASGYSFSSYYMHWVKQRPGQGLEWIGTIHPSDSTTNYNQKFKGKATLTVDKSSRTAYMQLNSLTFEDSAVYYCANFVYWGQGTSVTVSS
VL: DIVITQDELSNPVTSGDSVSISCRSSKSLLYKDGKTYLNWFLQRPGQSPQLLIYVVSTRASGVSDRFSGSGSGTDFTLEISRVKAEDVGVYYCQQLVEYPYTFGGGTKLEIK

What was measured:
MM1.S (Luc) cells [1] = tested on: MM1.S (Luc) cells
Protocol: The mice (N=9 per group) were distributed to ensure that the mean whole-body tumor burden for all groups was within 10% of the overall mean whole-body tumor burden for the study population. Treatment was initiated on day 14 post tumor implant. […] Treatment in all groups was discontinued at Day 53; surviving animals were monitored for an additional 3 weeks out to Day 73 (discontinuation phase of the study).
Whole body tumor burden was monitored by bioluminescence. […] BLI was performed using an IVIS Lumina S5 (PerkinElmer, MA). Animals were imaged five at a time under 1-2% isoflurane gas anesthesia. […] Large binning of the CCD chip was used, and the exposure time was adjusted (5 seconds to 2 minutes) to obtain at least several hundred counts per image and to avoid saturation of the CCD chip Animals were imaged once weekly at staging and on days 14, 21, 29, 36, 43, 53, and 73 (end of study) for all animals remaining on study. Images were analyzed using Living Image 4.7.1 (PerkinElmer, MA) software. Whole body fixed-volume regions of interest (ROIs) were placed on prone and supine images for each individual animal and labeled based on animal identification. Total flux (photons/sec) was calculated and exported for all ROIs to facilitate analyses between groups. The prone and supine ROIs were summed together to estimate whole body tumor burden. Subject ROIs were also placed over each mouse, and region-specific ROIs were placed over spine and hindlimbs for each animal. These ROIs were then quantified independent of the whole-body ROIs in order to calculate signal from only hind limbs or spine.
Primary and secondary efficacy endpoints were generated using in vivo whole body BLI and included tumor burden assessment as described herein. Endpoints included whole body BLI ratio T/C (where T=treatment group and C=vehicle control) measured on each imaging day and reported on day 36 and tumor growth delay as measured as time to tumor burden as pre-defined as a BLI signal of 1.0×10^9 p/s. Additional efficacy endpoints included tumor regression, tumor free survival (TFS), and median life span normalized to vehicle control (% increased life span); this latter endpoint was calculated based on the first day of treatment and not the day of implant. Overall survival was calculated based on animals remaining on study.
Additional measurements included body weights (3× weekly), daily clinical observations and necropsy following euthanasia. Pre-defined euthanasia criteria were related to disease progression and included >20% loss in body weight or disease-related morbidity such as hind limb paralysis, paresthesia, or other signs of severe CNS or musculoskeletal impairment.

[2] = tested on: CD138+ human lymphoblastic myeloma U266 cells; assay: Luciferase-based ADCC reporter bioassay (Jurkat FcγRIIIa effector cells) against U266; type: cell-based; details: 3-fold dilutions from 10 μg/mL, E:T 10:1, 16 h, FIG. 4
Protocol: (§1) In another experiment, the ADCC activity of the humanized variants of anti-CD138 antibody 2810 was assessed. Briefly, the humanized variant antibodies were produced by transient transfection of HEK 293 cells metabolically altered for purposes of reduced Fc fucosylation. The antibodies were then evaluated for antibody dependent cellular cytotoxicity (ADCC) activity against CD138^+ human lymphoblastic myeloma U266 cells in a luciferase based ADCC reporter assay using, as effector cells, engineered Jurkat cells stably transfected with the human FcγRIIIa receptor. U266 cells were incubated with mAbs that were 3-fold serially diluted from a starting concentration of 3 μg/mL and added to effector cells and CD138+U266 multiple myeloma target cells at a cell ratio of effector:target of 10:1. After 16-hour incubation at 37° C., luciferase activity was assessed as a measure of ADCC activity and reported as relative luminescence units (RLU). ADCC data were plotted using nonlinear regression analysis and a 4-parameter curve fit.
(§2) Second, humanized anti-CD138 antibody variants 3821, 4321, 4320, 4521, 4326, and 3820 were assessed for ADCC activity against U266, MM1.S, LP-1, and RPMI 8226 CD138^+ multiple myeloma cell lines using a luciferase based ADCC reporter assay, as described in Example 15. CD138^+ target cells were incubated with anti-CD138 antibodies that were serially diluted 3-fold starting at a concentration of 10 μg/mL, and subsequently added to FcγRIIIa effector cells at a cell ratio of effector:target cell (E:T of 10:1). After a 16 hour incubation at 37° C., cellular luciferase levels were quantified as a measure of ADCC activity and reported as relative luminescence units (RLU).
Briefly, the two antibodies were evaluated for ADCC activity against CD138^+ human lymphoblastic myeloma U266 cells in a luciferase based ADCC reporter assay using, as effector cells, engineered Jurkat cells stably transfected with the human FcγRIIIa receptor as described in Example 1. This comparison is summarized in FIG. 9B with data normalized as fold-induction of ADCC activity relative to the minus antibody control.

CD138+ MM1.S cells [3] = assay: Antibody binding to MM1.S cells by flow cytometry; design: species or system human; details: FIG. 3
Protocol: (§3) In one experiment, the humanized variants of monoclonal antibody 2810 were assessed for their capacity to bind to CD138 on the surface of cells. Briefly, the humanized variants of antibody 2810 were produced in HEK 293 cells following transient transfection. The antibodies were then serially diluted three-fold. Antibody binding to membrane CD138 was evaluated using the CD138+ human lymphoblastic myeloma cell line U266 and quantified by flow cytometry. Antibody cell binding was reported as geometric mean fluorescence intensity (MFI). Binding data were plotted using nonlinear regression analysis and a 4-parameter curve fit.
(§4) First, humanized anti-CD138 antibody variants 3821, 4321, 4320, 4521, 4326, and 3820 were evaluated for binding to three different CD138+ multiple myeloma related cell lines: MM1.S, LP-1, and RPMI 8226. Antibody binding was measured by flow cytometry as described in Example 15.

CD138+ LP-1 cells [4] = assay: Antibody binding to LP-1 cells by flow cytometry; design: species or system human; details: FIG. 3
Protocol: as §3, §4

CD138+ RPMI 8226 cells [5] = assay: Antibody binding to RPMI 8226 cells by flow cytometry; design: species or system human; details: FIG. 3
Protocol: as §3, §4

CD138+ MM1.S cells [6] = assay: Luciferase-based ADCC reporter assay against MM1.S; type: cell-based, human; details: 3-fold dilutions from 10 μg/mL, E:T 10:1, 16 h, FIG. 4
Protocol: as §1, §2

CD138+ LP-1 cells [7] = assay: Luciferase-based ADCC reporter assay against LP-1; type: cell-based, human; details: 3-fold dilutions from 10 μg/mL, E:T 10:1, 16 h, FIG. 4
Protocol: as §1, §2

CD138+ RPMI 8226 cells [8] = assay: Luciferase-based ADCC reporter assay against RPMI 8226; type: cell-based, human; details: 3-fold dilutions from 10 μg/mL, E:T 10:1, 16 h, FIG. 4
Protocol: as §1, §2

[9] = Differential scanning fluorescence (DSF) thermal stability; type: physicochemical; details: PBS pH 7.4, 25-95 °C; for TM1: first thermal transition; for TM2: second thermal transition
From the text: Thermal stability represents an important property of antibodies and is used as a predictive surrogate of pharmaceutical drug stability in humans based on a relative stability profile as characterized by differential thermal melting profiles. Several methods exist for evaluation of product stability based on thermal melting. These include, for example, circular dichroism (CD), differential scanning calorimetry (DSC), and differential scanning fluorescence (DSF), among others. In this example, the thermal stabilities of select humanized anti-CD138 antibodies were evaluated by DSF. DSF was used to monitor the conformational stability of a protein as it was exposed to increasing thermal stress. The dye, SYPRO Orange®, fluoresces in a hydrophobic environment, such as hydrophobic core residues that are exposed during thermally triggered protein unfolding, or denaturation. In brief, SYPRO® Orange Dye (Sigma Chemical) was diluted 1:500 in phosphate buffered saline (PBS), pH 7.4, without addition of any detergents. Antibodies were likewise diluted in PBS to a target concentration of 0.5 mg/mL. 15 μl of diluted antibody and fluorescent dye were added 1:1 (v/v) into a 96 well microtiter plate and thoroughly mixed by repeat pipetting. Thermal scans were carried out using a real-time quantitative PCR (qPCR) thermal cycler with fluorescence detection capabilities. Scans were initiated at 25° C. with incremental increase in well temperature of 1° C. ramp/minute from 25° C. to 95° C. The mid-point (Tm) between native state and the first unfolding event was reported as the transition temperature or melt temperature (TM). TMs were then calculated based on transformation of the data using the first derivative of the fluorescence signal versus time. (dfluoresence/dtime) (FIG. 7).

[10] = Antibody production titers in Chinese hamster ovary cells; details: CHO transient transfection, after Protein A purification
From the text: The yields represent antibody amounts following purification from cell culture media by Protein A affinity chromatography, carried out under identical transfection conditions and culture scale. Differential pre-purification titers based on quantification using Protein-A biosensors (bio-layer interferometry) of antibody in culture media was also noted likewise indicating differential expression levels (antibody titers).

MM1.S (Luc) cells [11] = assay: MM.1S Luc xenograft multiple myeloma model in C.B-17 SCID mice, dose escalation (Example 7); type: in vivo

Row | Molecule | Change in body weight (MM1.S (Luc) cells [1]; FIG. 21) | Loss of weight of euthanized animal (MM1.S (Luc) cells [1]; bortezomib single agent, day 23) [%] | Treatment related death (MM1.S (Luc) cells [1]; bortezomib single treatment group, initially 2 mg/kg, early euthanasia day 23) [%] | Survival (animals remaining on study to end of study) (MM1.S (Luc) cells [1]; day 73, treatment discontinued day 53) | Incidence of complete or partial regression (MM1.S (Luc) cells [1]; end of dosing phase) | Tumor growth delay (time to BLI 1.0×10^9 p/s) (MM1.S (Luc) cells [1]; mAb 4320 4 mg/kg, bortezomib 1 mg/kg i.p. twice weekly) [days] | Increase in life span relative to vehicle control (MM1.S (Luc) cells [1]; mAb 4320 4 mg/kg, bortezomib 1 mg/kg i.p. twice weekly, day 14-53) [%] | Tolerability / toxicity (MM1.S (Luc) cells [1]; mouse, in vivo) | ADCC activity (RLU) [2] | Antibody binding by flow cytometry (CD138+ MM1.S cells [3]) | Antibody binding by flow cytometry (CD138+ LP-1 cells [4]) | Antibody binding by flow cytometry (CD138+ RPMI 8226 cells [5]) | ADCC activity (RLU) (CD138+ MM1.S cells [6]) | ADCC activity (RLU) (CD138+ LP-1 cells [7]) | ADCC activity (RLU) (CD138+ RPMI 8226 cells [8]) | TM1 [9] [°C] | TM2 [9] [°C] | Expression [10] [mg/L] | Median % T/C (whole body BLI) (MM1.S (Luc) cells [11]; day 35, vs vehicle control) [%] | Tumor growth delay (time to median BLI of 1.0×10^9 p/s) relative to vehicle control (MM1.S (Luc) cells [11]; i.p. twice weekly, mAb 4320 4, 8, 16 mg/kg, mAb 2810 4 mg/kg) [days]
1 | CC(C)C[C@H](NC(=O)[C@H](Cc1ccccc1)NC(=O)c1cnccn1)B(O)O [bortezomib, [(1R)-3-Methyl-1-[[(2S)-1-oxo-3-phenyl-2-[(pyrazinylcarbonyl)amino]propyl]amino]butyl]boronic Acid, reference compound] | Loss of body weight | −24 | 11 | none of the animals survived | None | 10.6 | 40 | treatment related toxicity was observed | – | – | – | – | – | – | – | – | – | – | – | –
2 | B1 | – | – | – | – | – | – | – | – | induced ADCC activity | dose-dependent binding | dose-dependent binding | dose-dependent binding | induced ADCC activity | induced ADCC activity | induced ADCC activity | 69.1 | 77.7 | – | – | –
3 | B2 | – | – | – | – | – | – | – | – | induced ADCC activity | dose-dependent binding | dose-dependent binding | dose-dependent binding | induced ADCC activity | induced ADCC activity | induced ADCC activity | – | – | – | – | –
4 | B3 | – | – | – | – | – | – | – | – | induced ADCC activity | dose-dependent binding | dose-dependent binding | dose-dependent binding | induced ADCC activity | induced ADCC activity | induced ADCC activity | – | – | – | – | –
5 | B4 | – | – | – | – | – | – | – | – | induced ADCC activity | dose-dependent binding | dose-dependent binding | dose-dependent binding | induced ADCC activity | induced ADCC activity | induced ADCC activity | 69.3 | 76.9 | – | – | –
6 | B5 | – | – | – | – | – | – | – | – | induced ADCC activity | dose-dependent binding | dose-dependent binding | dose-dependent binding | induced ADCC activity | induced ADCC activity | induced ADCC activity | – | – | – | – | –
7 | B6 | – | – | – | – | – | – | – | – | – | – | – | – | – | – | – | 61.9 | – | 30.2 | 13.1 | 6.6
